Measurements as given in the RNAGym collection of RNA variant scans (doi:10.1073/pnas.2313332121).

B1: TPR t1 (parent)
chain: GACCAAUCUGCCCUCAGAGCUCGAGAACAUCUUCGGAUGCAGAGGAGGCAGGCUUCGGUGGCGCGAUAGCGCCAACGUCCUCAACCUCCAAUGCAUCCCACCACAUGAUGAUGCCUGAAGAGCCUUGGUUUUUUG

Variants of: B1
Test: polymerase ribozyme fitness, log enrichment relative to wild type (log ratio); higher = more active; in vitro selection for triplet polymerase activity
Procedure, shortened: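 Fitness compares each genotype's enrichment to that of the wild type on a logarithmic scale, averaging replicates with inverse-variance weights. The logarithm is base 2. Enrichment came from Illumina sequencing of input and output libraries after one triplicate round of in vitro selection, which included frozen incubation at −7 °C, of PCR-built, transcribed mutant libraries of each subunit of a heterodimeric triplet polymerase ribozyme. Only genotypes with ≥10 input reads and ≥1 read per output were kept.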

Variant	polymerase ribozyme fitness (log ratio)
C3A G10U G69U C72U C101U	-1.82
C3A G23C C40A A84C G110C	-5.53
C3A G36C G63A U130C	-2.1
C3A G39A A68G G128U	-4.5
C3A G39U	-2.46
C3A G44A A46U C53G C115U	-6.56
C3A G44U	-3.37
C3A G48U	-2.67
C3A G52U C64U	-2.19
C3A G57A C114U	-4.29
C3A G57C G71U A90U C114A U132C	-2.98
C3A G60A	-1.52
C3A G60U	-1.28
C3A G61A	-1.23
C3A G61U C115A	-1.78
C3A G71A U130C	-0.935
C3A G71C C79G A119G C123A	-1.16
C3A G110C U112A G117A U132C	-6.59
C3A U7C G113C	-2.78
C3A U7G U32C G60U G93C A111C	-2.96
C3A U9C C11A C49G U109A U126G	-6.11
C3A U9G G44A C62A C88G G113A C123G	-4.87
C3A U59G U78A C89A G120U	-3.26
C3G	-1.58

Variant	polymerase ribozyme fitness (log ratio)
C3G A16U U38G	-4.66
C3G A29U C49A G57U A121G	-2.13
C3G A41C	-3.54
C3G A46U	-2.71
C3G C8G C73U C101G G120U	-0.772
C3G C11A C12U G58C C62U	-4.45
C3G C12G A83C U106A	-2.23
C3G C13A	-3.57
C3G C13U G36U G45A C72U U125A G127U U131C	-2.84
C3G C22A C124G G128C	-3.09
C3G C28U G61U G120C U125G	-4.18
C3G C34G C76G A91C U109G	-6.42
C3G C72A	-1.64
C3G C72U	-2.37
C3G C73U A90C	-3.32
C3G C86A	-3.1
C3G C88G	-2.34
C3G C88G U112G	-2.52
C3G C115A	-2.96
C3G C124A	-0.505
C3G G10A U106A	-2.9
C3G G10C C34G G42U G69U C82G C102A U109A	-5.83
C3G G19A C20G C88G U112G C115U	-5.61
C3G G39A G51U G69U C79A U130G	-3

Variant	polymerase ribozyme fitness (log ratio)
C3G G48C C89U U132C	-1.66
C3G G63C A68C A111U U112G G113A	-5.32
C3G G71C A90U A95U U112A	-3.23
C3G G93U C98U G128C	-2.57
C3G U9A C85A	-2.07
C3G U9G A43G G61A C114A U131A	-3
C3G U81C A111C G128A U133G	-4.61
C3G U96C G113U	-6.42
C3U	-0.284
C3U A6U G57A G120C	0.153
C3U A16U	-2.53
C3U A24G G47C	-3.61
C3U A29C G61U	-2.81
C3U A29G C53U G57C C86G	-4.64
C3U A29U	-1.77
C3U A37U C40A G60U	-1.23
C3U A37U G61A G117A	-1.3
C3U A41C U125A U126C	-3.37
C3U A50C C73A C85U G120U	-1.28
C3U A90G	-0.86
C3U C8A A16U U33A G44A G120C	-6.36
C3U C8A C11A U21A C124G	1.81
C3U C8A C73G G120C G135C	1.56
C3U C8A G25A C31G C70G U92A C94A C98G C99G G117U	-6.98

Variant	polymerase ribozyme fitness (log ratio)
C3U C8G G45U U54A C72U U87C U130A	-1.62
C3U C8G G48U G93U	-0.42
C3U C8U G71U C88U G117C	-4.1
C3U C11A C13G A74G	-2.98
C3U C11A G47A C72A G110U	-2.89
C3U C11A G120C	0.399
C3U C11G A24G C40U C62G	-3.32
C3U C11U	-0.785
C3U C11U C13G U116C	-4.66
C3U C11U U33A	-4.58
C3U C12A C79G	-2.97
C3U C12A G60A	-1.22
C3U C12A G61C A84C U130C U133G	-2.37
C3U C12G C85U	-1.47
C3U C12G G71U	-0.231
C3U C12U C89G	-1.64
C3U C12U G110A	-0.836
C3U C13G A111C	-1.32
C3U C13U C34U C62U C85U	-5.63
C3U C13U C85U U87A A95C	-2.29
C3U C20A A46G C72G G113U	-0.27
C3U C20A G57A G60U G117A	-4.91
C3U C20U	-1.7
C3U C28A A41G C56U G120C	-5.25

Variant	polymerase ribozyme fitness (log ratio)
C3U C28A U112A	-2.92
C3U C40G C115A	-1.95
C3U C40G G42U C82U C89U C94U	-3.64
C3U C40U A43G C53U C124U	-1.48
C3U C40U G117U	-3.25
C3U C40U U54C U92G	-3.03
C3U C53A C72G	-1.22
C3U C56G A83U C85A	-3.16
C3U C64U G71U C85G A121U	-4.22
C3U C70U G110A	-2.71
C3U C72U C98A	-5.34
C3U C73A G135U	-1.52
C3U C80G	-5.98
C3U C86G G113C	-3.51
C3U C88A	-1.53
C3U C94U U106C	-0.635
C3U C102U G117U	-4.61
C3U G10A G44C C49A G120U	0.0361
C3U G10A U21C G61A C98U A119U	-2.55
C3U G10U A41C C115U U126G	-6.14
C3U G17C G61C G117U	-5.52
C3U G17C G117U	-6.24
C3U G17U C64U	-3.03
C3U G17U G47A U96A U106A C115A U130G	-2.25

Variant	polymerase ribozyme fitness (log ratio)
C3U G39C G44A G63A G77U U78A A119G	-2.88
C3U G39C G44A G77U U78A A119G	-1.19
C3U G45A A105U	-3.3
C3U G45U G60U A91G C123U	-2.3
C3U G47A G61A A84C	-0.617
C3U G47U A105G	-4.56
C3U G48A A68G	-3.84
C3U G48C G61U	-0.989
C3U G51C G58A G63U C115G	-5.47
C3U G52A C62U A121U	1.52
C3U G61A A91U	-1.66
C3U G61A U78G U112G	-0.547
C3U G61U U78G U92G G120A G127U	-2.24
C3U G63A	-1.72
C3U G69C C88G U96G	-2.75
C3U G69U A105G G117C	-4.98
C3U G71U	-0.48
C3U G71U U125G	-1.58
C3U G110U	-1.54
C3U G117A G120U	-2.21
C3U G120A	0.234
C3U U7C A18C G52A C94A	-5.04
C3U U7C C86A A121G	2.02
C3U U7G A84U C101U G110U U125A	-3.16

Variant	polymerase ribozyme fitness (log ratio)
C3U U9A	0.706
C3U U9C C49A C70U C76A C115A	-0.878
C3U U14A C53G C64U G120A	0.544
C3U U14C C62U A118G U129C	-2.13
C3U U32C C101U G120C	-0.584
C3U U54C C104A U131C	-2.52
C3U U55C G120C	-1.02
C3U U78C A105U G120C	-1.99
C3U U81G	-4.04
C3U U87G	-0.293
C3U U106A	-0.258
C4A	-1.19
C4A A5G	-1.02
C4A A50G C70U A74G A84C C115A	-5.12
C4A A74C C123G U133G	0.795
C4A A95U	-1.38
C4A C8A A37U C56A	-1.7
C4A C11G	-1.18
C4A C11G G44C U54C	-1.66
C4A C13U A26U G44U C49A C104U	-6.34
C4A C40U G42C G52U G60A A119U U129A	-5.41
C4A C53G G77A C80A	-5.1
C4A C62A U92A U129A	-5.8
